Biological target: CD40 (Cluster of Differentiation 40) on cells (UniProt P25942)
Sequence (P25942 21-277 limits assumed): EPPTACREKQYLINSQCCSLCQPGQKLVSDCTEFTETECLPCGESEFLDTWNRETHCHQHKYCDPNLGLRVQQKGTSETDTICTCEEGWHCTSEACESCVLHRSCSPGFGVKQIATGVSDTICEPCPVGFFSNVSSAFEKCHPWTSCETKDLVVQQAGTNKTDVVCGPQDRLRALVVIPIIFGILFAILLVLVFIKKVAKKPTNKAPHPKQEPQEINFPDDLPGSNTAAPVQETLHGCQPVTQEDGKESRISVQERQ

Sequence of CD40L (Invivogen), native CD40 binding partner (P29965 113-261 limits assumed): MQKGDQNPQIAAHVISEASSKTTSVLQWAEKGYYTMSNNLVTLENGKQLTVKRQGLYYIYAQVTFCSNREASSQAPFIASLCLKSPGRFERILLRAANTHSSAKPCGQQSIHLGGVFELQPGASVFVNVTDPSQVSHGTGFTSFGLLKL

EC50, CD40 RGA, FcgRIIB CHOK1: 0.81 µg/mL
EC50, CD40 RGA, HEK Blue only: 0.43 µg/mL
EC50, CD40 RGA, WT CHOK1: 0.44 µg/mL
Fold wrt WT (EC50, relative to v32477 - uPa), CD40 RGA, FcgRIIB CHOK1: 16.6 fold
Fold wrt WT (EC50, relative to v32477 - uPa), CD40 RGA, HEK Blue only: 2.76 fold
Fold wrt WT (EC50, relative to v32477 - uPa), CD40 RGA, WT CHOK1: 3.19 fold
Substance: CD40L (Invivogen), native CD40 binding partner (from UniProt P29965 113-261) (ligand)

From patent publication US20230331809A1
